From patent US20180355059A1

Molecular target: recombinant human PCSK9^D374Y protein (human), Q8NBP7
Assay: cell-based or functional assay

LDL (%), LDL uptake by HepG2 cells; antibody 0.67 nM: 20%
LDL (%), LDL uptake by HepG2 cells; antibody 6.67 nM: 43.8%
LDL (%), LDL uptake by HepG2 cells; antibody 66.70 nM: 86.4%
B1: 103C11E8, chimeric anti-PCSK9 antibody from hybridoma (antibody, V domains shown)
VH: QVQLQESGPGLVKPSGTLSLTCAVSGGSISSSNWWSWVRQPPGKGLEWIGEIYHSGSTNYNPSLKSRVTISVDKSKNQFSLKLSSVTAADTAVYYCARGIAVAGTDVMDAWGQGASVTVSS
VL: EIVLTQSPATLSLSPGERATLSCRASQSVSSYLVWYQQKSGQAPRLLIYGTSNRATGIPARFSGSGSGTDFTLTISSLEPEDFALYYCQQRGNWMYTFGQGTKLEIK
modifications: here or on the partner: biotinylated in the ELISA assays
